Measured values from patent US20260042834A1, “ANTI-CORTICOTROPIN-RELEASING HORMONE ANTIBODIES AND POLYCYSTIC OVARY SYNDROME” (HBM ALPHA THERAPEUTICS, INC., priority 2022, published 2026).
Positions count from the first letter of the chain named.

B1: PR302029: humanized variant of Series 5 mAb PR301777; VH SEQ ID NO: 255, VL SEQ ID NO: 310 (antibody, V domains shown)
VH: EVQLVESGGGLVQPGGSLRLSCAASGFTFSNYWMNWVRQAPGKGLEWVGEIRLKSNNYATHYAESVKGRFTISRDDSKNSLYLQMNSLKTEDTAVYYCTVGTLVYWGQGTLVTVSS
VL: DIVLTQSPDSLAVSLGERATINCRASQSVSTSTYNYMHWFQQKPGQPPKLLIKFASNLESGVPDRFSGSGSGTDFTLTISSLQAEDTAVYYCQHSWEIPYTFGQGTKLEIK
modifications: PR302029 VH, PR302031 VH, PR302034 VH; PR302029 VL, PR302036 VL, PR302043 VL, PR302050 VL, PR302064 VL
B2: PR302034: humanized variant of Series 5 mAb PR301777; VH SEQ ID NO: 255, VL SEQ ID NO: 312 (antibody, V domains shown)
VH: B1 VH
VL: DIQLTQSPSSLSASVGDRVTITCRASQSVSTSTYNYMHWFQQKPGKAPKLLIKFASNLESGVPSRFSGSGSGTDFTLTISSLQPEDTATYYCQHSWEIPYTFGQGTKLEIK
modifications: PR302029 VH, PR302031 VH, PR302034 VH; PR302034 VL, PR302041 VL, PR302048 VL, PR302055 VL, PR302069 VL
B3: PR302048: humanized variant of Series 5 mAb PR301777; VH SEQ ID NO: 257, VL SEQ ID NO: 312 (antibody, V domains shown)
VH: B1 VH with R19K, P41S, S80T, L81A, V100R
VL: B2 VL
modifications: PR302043 VH, PR302045 VH, PR302048 VH; PR302034 VL, PR302041 VL, PR302048 VL, PR302055 VL, PR302069 VL
B4: PR302036: humanized variant of Series 5 mAb PR301777; VH SEQ ID NO: 256, VL SEQ ID NO: 310 (antibody, V domains shown)
VH: B1 VH with V2M, G49A, N79S, L81V
VL: B1 VL
modifications: PR302036 VH, PR302038 VH, PR302041 VH; PR302029 VL, PR302036 VL, PR302043 VL, PR302050 VL, PR302064 VL
B5: PR302043: humanized variant of Series 5 mAb PR301777; VH SEQ ID NO: 257, VL SEQ ID NO: 310 (antibody, V domains shown)
VH: B1 VH with R19K, P41S, S80T, L81A, V100R
VL: B1 VL
modifications: PR302043 VH, PR302045 VH, PR302048 VH; PR302029 VL, PR302036 VL, PR302043 VL, PR302050 VL, PR302064 VL
B6: PR302041: humanized variant of Series 5 mAb PR301777; VH SEQ ID NO: 256, VL SEQ ID NO: 312 (antibody, V domains shown)
VH: B1 VH with V2M, G49A, N79S, L81V
VL: B2 VL
modifications: PR302036 VH, PR302038 VH, PR302041 VH; PR302034 VL, PR302041 VL, PR302048 VL, PR302055 VL, PR302069 VL
B7: PR302341-8: humanized variant of Series 10 mAb PR302341; VH SEQ ID NO: 281, VL SEQ ID NO: 340 (antibody, V domains shown)
VH: QVQLVQSGAEVKKPGASVKVSCKASGYTFTDYFMKWVRQAPGQGLEWMGVINPNNGDIFYNQKFKGRVTMTVDKSTSTAYMELSSLRSEDTAVYYCARGTDRALFAYWGQGTLVTVSS
VL: DVVMTQSPLSLPVTLGQPASISCRSGQSIVHSDGNTYLEWYQQRPGQSPRLLIYKVSNRFSGVPDRFSGSGSGTDFTLKISRVEAEDLGVYYCFQGSHIPWTFGGGTKVEIK
modifications: PR302341-10 VH, PR302341-11 VH, PR302341-12 VH, PR302341-14 VH,PR302341-67 VH, PR302341-68 VH, PR302341-69 VH, PR302341-7 VH,PR302341-8 VH, PR302341-9 VH; PR302341-19 VL, PR302341-20 VL, PR302341-21 VL, PR302341-22 VL,PR302341-23 VL, PR302341-28 VL, PR302341-29 VL, PR302341-2 VL,PR302341-41 VL, PR302341-55 VL, PR302341-56 VL, PR302341-57 VL,PR302341-
B8: PR302341-10: humanized variant of Series 10 mAb PR302341; VH SEQ ID NO: 281, VL SEQ ID NO: 336 (antibody, V domains shown)
VH: B7 VH
VL: B7 VL with S7T, L11S, S48P, S72A
modifications: PR302341-10 VH, PR302341-11 VH, PR302341-12 VH, PR302341-14 VH,PR302341-67 VH, PR302341-68 VH, PR302341-69 VH, PR302341-7 VH,PR302341-8 VH, PR302341-9 VH; PR302341-10 VL, PR302341-24 VL, PR302341-26 VL, PR302341-43 VL,PR302341-44 VL, PR302341-45 VL, PR302341-4 VL
B9: PR302341-19: humanized variant of Series 10 mAb PR302341; VH SEQ ID NO: 282, VL SEQ ID NO: 340 (antibody, V domains shown)
VH: B7 VH with V72R, K74T, A79V
VL: B7 VL
modifications: PR302341-13 VH, PR302341-19 VH; PR302341-19 VL, PR302341-20 VL, PR302341-21 VL, PR302341-22 VL,PR302341-23 VL, PR302341-28 VL, PR302341-29 VL, PR302341-2 VL,PR302341-41 VL, PR302341-55 VL, PR302341-56 VL, PR302341-57 VL,PR302341-
B10: PR302341-20: humanized variant of Series 10 mAb PR302341; VH SEQ ID NO: 283, VL SEQ ID NO: 340 (antibody, V domains shown)
VH: B7 VH with G44R, M70I, V72R, K74T, T76A
VL: B7 VL
modifications: PR302341-15 VH, PR302341-20 VH, PR302341-70 VH, PR302341-71 VH,PR302341-72 VH; PR302341-19 VL, PR302341-20 VL, PR302341-21 VL, PR302341-22 VL,PR302341-23 VL, PR302341-28 VL, PR302341-29 VL, PR302341-2 VL,PR302341-41 VL, PR302341-55 VL, PR302341-56 VL, PR302341-57 VL,PR302341-

System: human CRHR2
Assay: CRH-induced luciferase reporter blocking assay, CHO-CRE-hCRHR2 cells
Type: cell-based
Details: CHO-CRE-hCRHR2 cells, 0.1 nM CRH
Method: (§1) To create CHO-CRE-hCRHR1, -hCRHR2, -mCRHR1, and -mCRHR2 reporter cell lines, pcDNA3.1-hCRHR1, -hCRHR2, -mCRHR1, and -mCRHR2 were introduced into CHO-CRE cells established above by electroporation as described above. Selection antibiotics hygromycin at 500 μg/ml and G418 at 1,000 μg/ml were employed. Individual established stable cell lines were characterized by both CRH and forskolin stimulation.
Activated GPCR proteins increase production of the intracellular cAMP. CHO-CRE-human CRHR1 stable clone 11 was generated by introduction of pcDNA3.1-human CRHR1 under the selection of G418 and hygromycin. Human CRHR1 expression in CHO-CRE-hCRHR1 Clone 11 was confirmed by flow cytometry (data not shown). To further validate that the cell line was functional, CHO-CRE-hCRHR1 Clone 11 cells were treated with forskolin and CRH peptide. […] Subsequently CHO-CRE-hCRHR2 Clone 32, -mCRHR1 Clone 22, and -mCRHR2 Clone 8 cell lines were established using similar methodology and validated with CRH treatment (data not shown).
Blocking CRHR1 by small molecules or neutralization of CRH peptide can reduce luciferase expression if the CRH-CRHR1 system works in CHO-CRE-hCRHR1 cells. Antalarmin, a small molecule CRHR1 antagonist, blocked CRH-mediated luciferase expression in CHO-CRE-hCRHR1 Clone 11 (data not shown). Furthermore, sheep anti-CRH polyclonal antibody reduced CRH-mediated luciferase expression in these cells (data not shown). Likewise, sheep anti-CRH polyclonal antibody blocked CRH-mediated luciferase expression in CHO-CRE-hCRHR2, CHO-CRE-mCRHR1, and CHO-CRE-mCRHR2 cells (data not shown).
(§2) Cells were digested by trypsin-EDTA (Life technologies, Cat #:12604-013), centrifuged at 1,000 rpm for 5 min, resuspended in growth medium, counted using a cell counter, seeded at a concentration of 5,000 cells per 100 μl in 96-well flat plates, and incubated overnight. 50 μl of 4× serially diluted antibodies was added (8 points, 1/4 diluted by growth medium) to plates containing CHO-CRE-hCRHR1 cells, and 50 μl of 4×CRH (4× is 2 nM, final is 0.5 nM) was added. Similarly, 4×CRH (4× is 0.4 nM, final is 0.1 nM) was added to CHO-CRE-hCRHR2 cells and CHO-CRE-mCRHR1 cells, and 4×CRH (4× is 20 nM, final is 5 nM) was added to CHO-CRE-mCRHR2 cells. Next, plates were incubated 4-6 hours at 37° C. in a CO2 incubator. 60 μl of culture medium was removed, to which was added 60 μl of Bio-Glo luciferase, followed by incubation for 10 min at RT. Plates were read in a luciferase plate reader (EnVision, PerkinElmer).

IC50 [nM] | Molecule
5.75 | B1
10.2 | B2
13.9 | B3
2.21 | B4
5.25 | B5
4.92 | B6
0.293 | B7
0.143 | B8
0.178 | B9
0.263 | B10

Same assay, conditions: Table 9; hCRHR2

IC50 [nM] | Molecule
0.83 | B8
1.21 | B10

System: mouse CRHR2
Assay: CRH-induced luciferase reporter blocking assay, CHO-CRE-mCRHR2 cells
Type: cell-based
Details: CHO-CRE-mCRHR2 cells, 5 nM CRH
Method: as §1, with “stimulation. […]” for “stimulation.”
as §2

IC50 [nM] | Molecule
8.08 | B1
29.3 | B2
6.32 | B3
5.42 | B4
6.17 | B5
12.4 | B6
0.82 | B7
1.22 | B8
0.673 | B9
0.602 | B10

Same assay, conditions: Table 9; mCrhr2

IC50 [nM] | Molecule
1.44 | B8
1.98 | B10
